Experimental findings from publication PMC12548936, “Microfluidic‐Assisted Evolution of a Robust NAD^+‐Dependent Enzyme with Improved Isobutanol Tolerance at Elevated Temperatures” (Chemsuschem, 2025) are described below.

Substrate in series [1]: O=C[C@H](O)CO
Nature of the series: purified protein. Particulars: co-substrate 5 mM NAD+, 100 mM HEPES.

Substrate in series [2]: NC(=O)c1ccc[n+]([C@@H]2O[C@H](COP(=O)(O)OP(=O)(O)OC[C@H]3O[C@@H](n4cnc5c(N)ncnc54)[C@H](O)[C@@H]3O)[C@@H](O)[C@H]2O)c1
Nature of the series: photometric ALDH activity assay, Michaelis-Menten fit. The class given is biochemical, Herbaspirillum seropedicae. Particulars: co-substrate 5 mM D-glyceraldehyde, 100 mM HEPES, varied: cofactor.

Setting [3] is: wild type, Chis tag, pH 7.5, 30 °C, 30.0 °C.
The mark [4] stands for this setting: FIN3, GS-linker Nhis tag, pH 7.5, 50 °C, 50.0 °C.
Where [5] appears, read: FIN3, GS-linker Nhis tag, pH 7.5, 50 °C.
The mark [6] stands for this setting: FIN5, GS-linker Nhis tag, pH 7.5, 50 °C, 50.0 °C.
Setting [7] is: StEP template, GS-linker Nhis tag, pH 7.5, 50 °C, 50.0 °C.
Setting [8] is: StEP template, GS-linker Nhis tag, pH 7.5, 50 °C.
The mark [9] stands for this setting: FIN4, GS-linker Nhis tag, pH 7.5, 50 °C, 50.0 °C.
The mark [10] stands for this setting: FIN4, GS-linker Nhis tag, pH 7.5, 50 °C.

B1: HsALDH (HsALDH_Chis; NAD+-dependent aldehyde dehydrogenase / glyceraldehyde dehydrogenase GADH) (Herbaspirillum seropedicae SmR1) (protein)
chain: MYKDVQLFINGEWTASASGRTIDVINPATEEVIGKIAHADRADLDRALEAASKGFETWRNMSAFERSKIMRRAADLLRERAEEVARLMTMEQGKPLAEAKMETLGAADTIDWFAEEARRTYGRLVPARVPGAYQMVIKEPVGPVAAFTPWNFPLNQVVRKLSAALAAGCSIIVKAPEETPASPAELIRAYADAGVPAGVINLVYGVPAEISEYLIPHPVIKKISFTGSTPVGKQLAALAGQHMKRATMELGGHAPAMVFDDADVDVAAKMLATAKFRNAGQVCVSPTRFLVQKGVFNAFVDKFVTYAEQLKVGNGLEAGITMGPVANKRRIPALEALIDDAVSQGAQLRTGGKRIGNKGYFFQPTVLTNLPLQARAMNEEPFGPLALINSFETLDEVITEANRLPYGLAAYAFAKSAHTKHALAARVESGMLTINHLGLALPELPFGGIKDSGYGSEGGTEAIEAYINTKLVTQLDV
notes: recombinant, E. coli BL21(DE3); wild type with C-terminal His tag (Chis); models show dimerizing chains
In the case of B1, the Km in series [1] (setting [3]) is listed as 13.0 ± 0.4 mM; in series [2] (wild type, Chis tag, pH 7.5, 30 °C), 0.59 mM. In addition, the kcat in series [1] (setting [3]) came out at 68.6 ± 0.8 s⁻¹.

B2: HsALDH (HsALDH_Chis; NAD+-dependent aldehyde dehydrogenase / glyceraldehyde dehydrogenase GADH) (Herbaspirillum seropedicae SmR1; F147L/I36V/K221R/V158A/V284I) (protein)
chain: MYKDVQLFINGEWTASASGRTIDVINPATEEVIGKVAHADRADLDRALEAASKGFETWRNMSAFERSKIMRRAADLLRERAEEVARLMTMEQGKPLAEAKMETLGAADTIDWFAEEARRTYGRLVPARVPGAYQMVIKEPVGPVAALTPWNFPLNQVARKLSAALAAGCSIIVKAPEETPASPAELIRAYADAGVPAGVINLVYGVPAEISEYLIPHPVIRKISFTGSTPVGKQLAALAGQHMKRATMELGGHAPAMVFDDADVDVAAKMLATAKFRNAGQVCISPTRFLVQKGVFNAFVDKFVTYAEQLKVGNGLEAGITMGPVANKRRIPALEALIDDAVSQGAQLRTGGKRIGNKGYFFQPTVLTNLPLQARAMNEEPFGPLALINSFETLDEVITEANRLPYGLAAYAFAKSAHTKHALAARVESGMLTINHLGLALPELPFGGIKDSGYGSEGGTEAIEAYINTKLVTQLDV
notes: as for B1
For B2, the Km in series [1] (setting [4]) amounted to 3.3 ± 0.4 mM; in series [2] (setting [5]), 0.42 ± 0.02 mM. Besides, the kcat in series [1] (setting [4]) and in series [2] (setting [5]) was 46.9 ± 1.3 s⁻¹ throughout.

B3: HsALDH (HsALDH_Chis; NAD+-dependent aldehyde dehydrogenase / glyceraldehyde dehydrogenase GADH) (Herbaspirillum seropedicae SmR1; … (protein)
chain: MYKDVQLFINGEWTASASGRTIDVINPATEEVIGKVAHADRADLDRALEAASKGFETWRNMSAFERSKIMRRAADLLRERAEEVARLMTMEQGKPLAEAKMETLGAADTIDWFAEEARRTYGRLVPARVPGAYQMVIKEPVGPVAALTPWNFPLNQVARKLSAALAAGCSIIVKAPEETPASPAELIRAYADAGVPAGVINLVYGVPAEISEYLIPHPVIRKISFTGSTPVGKQLAALAGQHMKRATMELGGHAPAMVFDDADVDVAAKMLATAKFRNAGQVCISPTRFLVQKGVFNAFVDKFVTYAEQLKVGNGLEAGITMGPVANKRRIPALEALIDDAVSQGAQLRTGGKRIGNKGYFFQPTVLTNLPLQARAMNEEPFGPLALINSFETLDEVITEANRLPYGLAAYAFAKSAHTKHALAARVESGMMTINHLGLALPELPFGGIKDSGYGSEGGTEAIEAYINTKLVTQLDV
notes: as for B1
For the protein B3, in series [1] (setting [6]), the Km came to 3.5 ± 0.5 mM and the kcat turned out to be 54.8 ± 1.9 s⁻¹. The Km in series [2] (FIN5, GS-linker Nhis tag, pH 7.5, 50 °C) amounted to 0.34 mM.

B4: HsALDH (HsALDH_Chis; NAD+-dependent aldehyde dehydrogenase / glyceraldehyde dehydrogenase GADH) (Herbaspirillum seropedicae SmR1; F147L/I36V/V284I) (protein)
chain: MYKDVQLFINGEWTASASGRTIDVINPATEEVIGKVAHADRADLDRALEAASKGFETWRNMSAFERSKIMRRAADLLRERAEEVARLMTMEQGKPLAEAKMETLGAADTIDWFAEEARRTYGRLVPARVPGAYQMVIKEPVGPVAALTPWNFPLNQVVRKLSAALAAGCSIIVKAPEETPASPAELIRAYADAGVPAGVINLVYGVPAEISEYLIPHPVIKKISFTGSTPVGKQLAALAGQHMKRATMELGGHAPAMVFDDADVDVAAKMLATAKFRNAGQVCISPTRFLVQKGVFNAFVDKFVTYAEQLKVGNGLEAGITMGPVANKRRIPALEALIDDAVSQGAQLRTGGKRIGNKGYFFQPTVLTNLPLQARAMNEEPFGPLALINSFETLDEVITEANRLPYGLAAYAFAKSAHTKHALAARVESGMLTINHLGLALPELPFGGIKDSGYGSEGGTEAIEAYINTKLVTQLDV
notes: as for B1
In the case of B4, in series [1] (setting [7]), the Km came out at 12.7 ± 1.2 mM and the kcat amounted to 66.1 ± 2.0 s⁻¹. In series [2] (setting [8]), the Km is recorded as 0.51 ± 0.03 mM and the kcat was found to be 66.1 ± 2.0 s⁻¹.

B5: HsALDH (HsALDH_Chis; NAD+-dependent aldehyde dehydrogenase / glyceraldehyde dehydrogenase GADH) (Herbaspirillum seropedicae SmR1; F147L/I36V/K221R/L432M/V284I) (protein)
chain: MYKDVQLFINGEWTASASGRTIDVINPATEEVIGKVAHADRADLDRALEAASKGFETWRNMSAFERSKIMRRAADLLRERAEEVARLMTMEQGKPLAEAKMETLGAADTIDWFAEEARRTYGRLVPARVPGAYQMVIKEPVGPVAALTPWNFPLNQVVRKLSAALAAGCSIIVKAPEETPASPAELIRAYADAGVPAGVINLVYGVPAEISEYLIPHPVIRKISFTGSTPVGKQLAALAGQHMKRATMELGGHAPAMVFDDADVDVAAKMLATAKFRNAGQVCISPTRFLVQKGVFNAFVDKFVTYAEQLKVGNGLEAGITMGPVANKRRIPALEALIDDAVSQGAQLRTGGKRIGNKGYFFQPTVLTNLPLQARAMNEEPFGPLALINSFETLDEVITEANRLPYGLAAYAFAKSAHTKHALAARVESGMMTINHLGLALPELPFGGIKDSGYGSEGGTEAIEAYINTKLVTQLDV
notes: as for B1
As to B5, in series [1] (setting [9]), the Km amounted to 7.2 ± 0.8 mM and the kcat was found to be 46.6 ± 1.4 s⁻¹. Moreover, in series [2] (setting [10]), the Km came to 0.50 ± 0.06 mM and the kcat was 46.6 ± 1.4 s⁻¹.

A word on the Km: it is the concentration of substrate that gives half-maximal velocity. As a reminder, the kcat is the maximal rate divided by the concentration of active sites.
